This series can be described thus: yeast display, Sf9 membrane polyspecificity reagent, FACS + sequencing; frameworks hold sequencing errors. In a few lines: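 In a synthetic yeast display library (Saccharomyces cerevisiae BJ5465), nanobody expression was induced with galactose for 36–48 hours. FACS gates were set low and high (top ~1%) using anti-HA fluorescence for expression and streptavidin fluorescence for binding of the Sf9 membrane reagent. Each polyreactivity label is drawn from the gate of origin.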
“QVQLVESGGGLVQAGGSLRLSCAASGIIFGSYAMGWYRQAPGKERELVAAISTSGGSTYYADSVKGRFTISRDNAKNTVYLQMNSLKPEDTAVYYCNKAGVYRDSSRYNYWGQGTQVTVSS”: the “polyreactivity (PSR sort gate)” value is given as “high polyreactivity”. With “QVQLVESGGGLVQAGGSLRLSCAASGIIFGTNAMGWYRQAPGKERELVAGITSSGDSTYYADSVKGRFTISRDNAKNTVYLQMNSLKPEDTAVYYCARDIRTREFDSWGQGTQVTVSS”, the “polyreactivity (PSR sort gate)” value was “low polyreactivity”.

“QVQLVESGGGLVQAGGSLRLSCAASGIIFGTYAMGWYRQAPGKERELVAAIRRSGTGTYYADSVKGRFTISRDNAKNTVYLQMNSLKPEDTAVDYCNVVRSYAYDSWGQGTQVTVSS”: the “polyreactivity (PSR sort gate)” value is on record as “high polyreactivity”. Next, “QVQLVESGGGLVQAGGSLRLSCAASGIIFGWYAMGWYRQAPGKEREFVATISWSGASTYYADSVKGRFTISRDNAKNTVYLQMNSLKPEDTAVYYCAAGGRRQAYGRRDYWGQGTQVTVSS”: “high polyreactivity”; “QVQLVESGGGLVQAGGSLRLSCAASGIIFGYNAMGCYRQAPGKERELVASIDVSGGITYYADSVKGRFTISRDNAKNTVYLQMNSLKPEDTAVYYCAAYRYGSRYGYEYWGQGTQVTVSS”: “high polyreactivity”.

Regarding “QVQLVESGGGLVQAGGSLRLSCAASGIIFGYYAMGWSRKAPGKERELVAAISRGGNTNYADSVKGRFTISRDNAKNTVYLQMNSLKPEDTAVYYCAADFWSRIIYFYAVDVDYWGQGTQVTVSS”, the “polyreactivity (PSR sort gate)” value was “low polyreactivity”. Regarding “QVQLVESGGGLVQAGGSLRLSCAASGIIFGYYAMGWSRQEPGKERELVAAINQDGSSTYYADSVKGRFTISRDNAKNTVYLQMNSLKPEVTAVYYCNARGVPRQDARMGYWGEGTQVTVSS”, the “polyreactivity (PSR sort gate)” value is on record as “low polyreactivity”. Next, “QVQLVESGGGLVQAGGSLRLSCAASGIIFGYYAMGWYRQAPGKEREFVAAINYSGVSTYYADSVKGRFTISRDNAKNTVYLQMNSLKPEDTAVYSCAADFRIVVYGWGGSHMDYWGQGTQVTVSS”: “low polyreactivity”; “QVQLVESGGGLVQAGGSLRLSCAASGIIFGYYTMGWYRQAPGKERELVARITTGSSTNYADSVKGRFTISRDNAKNTVYLQMNSLKPEDTAVYYCAAVPIAADKANGYDYWGQGTQVTVSS”: “low polyreactivity”; “QVQLVESGGGLVQAGGSLRLSCAASGIIFHFNDMGWYRQAPGKERELVAAITSGGSTNYADSVKGRFTISRDNAKNTVYLQMNSLKPEDTAVYYCAARRGLRLFAYRHGYWGQGTQVTVSS”: “low polyreactivity”.

Consider “QVQLVESGGGLVQAGGSLRLSCAASGIIFHFNDMGWYRQAPRKERELVAAIDSTGSTNYADSVKGRFTISRDNAKNTVYLQMNSLKPEDTAVYYCAVLNHRVDSVLTRYYYWGQGTQVTVSS”, for which the “polyreactivity (PSR sort gate)” value is “low polyreactivity”.

For the sequence “QVQLVESGGGLVQAGGSLRLSCAASGIIFHPYAMGWYRQAPGKERELVAVITWPGDSTYYADSVKGRFTISRDNAKNTVYLQMNSLKPEDTAVYYCNVDAWGTSGELPYDYWGQGSQVTVSS”, the “polyreactivity (PSR sort gate)” value is on record as “low polyreactivity”. Turning to “QVQLVESGGGLVQAGGSLRLSCAASGIIFHRNDMGWYRQAPGKERELVANIRDGGITYADSVKGRFTISRDKAKNTVYLQMNSLKPEDTAVYYCARDDTSPGYGDQSSNAAYYYWGQGTQVTVSS”, the “polyreactivity (PSR sort gate)” value is recorded as “low polyreactivity”. The same measure for “QVQLVESGGGLVQAGGSLRLSCAASGIIFHYYAMGWYRQAPVKERELVAVITSGGSTNYADSVKGRFTISRDNAKNTVYLQMNSLKPEDTAVYYCAADPIRDSWWQYFQDGREYDYWGQGTQVTVSS”: “low polyreactivity”.

For “QVQLVESGGGLVQAGGSLRLSCAASGIIFIGNAMGWYRQAPGKERELVAAISRRGGGTYYADSVKGRFTISRDNAKNTVYLQMNSLKPEDTAVYYCNAEITVNDDDYWGQGTQVTVSS”, the “polyreactivity (PSR sort gate)” value is listed as “high polyreactivity”. The same measure for “QVQLVESGGGLVQAGGSLRLSCAASGIIFIGNAMGWYRQAPGKERELVAAISWNGVRTYYADSVKGRFTISRDNAKNTVYLQMNSLKPEYTAVYYCAAVTRRGIKLDYWGQGTQVTVSS”: “high polyreactivity”; for “QVQLVESGGGLVQAGGSLRLSCAASGIIFIHNAMGGYRQAPGTERELVAAINWSGGRTSYADSVKGRFTISRDNAKNTVYLQMTRLKPEDTAVYYCAADGRRYSGEYYYWGQGTQVTVSS”: “high polyreactivity”; for “QVQLVESGGGLVQAGGSLRLSCAASGIIFINYVKGWYRQAPGKESELVAAITGSGSSTYYADSVKGRFTISRDNAKNTVYLQMNSLKPEDTAVYYCAADNPRVRFLYYYWGQGTQVTVSS”: “high polyreactivity”. Next, “QVQLVESGGGLVQAGGSLRLSCAASGIIFIRYAMGWYRQAPGKERELVAAISWRGGSTYYADSVKGRFTISRDNAKNTVYFQMNSLKPEDTAVYYCAAGYFSYRRYDYWGEGTQVTVSS”: “high polyreactivity”. Next, “QVQLVESGGGLVQAGGSLRLSCAASGIIFIWNTMGWYRQAPGKEREFVAAISRSGSGTSYADSVKGRFTISRDNAKNTVYLQMNSLKPEDTAVYYWDARLEWPYDMYYWGQGTQVTVSS”: “low polyreactivity”; “QVQLVESGGGLVQAGGSLRLSCAASGIIFIYYVMGWYRQAPGKERELVAAISRSGGSTYYADSVKGRFTISRDNAKNTVNLQMNSLKPEDTAVYYCAARRITSTDEYYWGQGTQVTVSS”: “high polyreactivity”; “QVQLVESGGGLVQAGGSLRLSCAASGIIFKLYAMGWYRQAPGKEREFVATITKTCGRTYYADSVKGRFTISRDNAKNTVYLQMNSLKPEDTAVYYCAARRVNGKMYYWGQGTQVTVSS”: “high polyreactivity”.

For “QVQLVESGGGLVQAGGSLRLSCAASGIIFKSYTMGWYRQAPGKERELVAAINSSGDRTYYADSVKGRFTISRDNAKNTVYLQMNSLKPEDTAVYYCAAAPVKKSRFRYDYWGQGTQVTVSS”, the “polyreactivity (PSR sort gate)” value is on record as “high polyreactivity”. The same measure for “QVQLVESGGGLVQAGGSLRLSCAASGIIFKVNVMGWYRQAPGKERELVAAISWSGGSTYYADSVKGRFTISRDNAKNTFYLQMNILKPEDTAVYYCAAYSYVYGERYYFWGQGTQLTVSS”: “high polyreactivity”. Consider “QVQLVESGGGLVQAGGSLRLSCAASGIIFLRNTMGWNRQAPGKERELVASISRRGGSTYYADSVKGRFTISRDNAKNTVYFQLNSLNPEDTAVYYCAATVRGKRSTYDYWGQGTQVTVSS”, for which the “polyreactivity (PSR sort gate)” value is on record as “high polyreactivity”. Next, “QVQLVESGGGLVQAGGSLRLSCAASGIIFLSYAIGWYRQAPGKERELFAAISSGVSTYSADSVKGRFTISRDNAKNPVYFQMNSLKPEDTAVYFCAAYYLWPGYQFRPYDYWGQGTQVTVSS”: “low polyreactivity”; “QVQLVESGGGLVQAGGSLRLSCAASGIIFLSYAMGWYRQAPGKERELVAAIRSRGDSTYYADSVKGRFTISRDNAKNTVYLQMNSLKAEDTAVYYCNARQRRYPYGYWGQGTQVTVSS”: “high polyreactivity”; “QVQLVESGGGLVQAGGSLRLSCAASGIIFLYYAMGWYRQAPGKERELVAAISRSGGRTFYADSVKGRFTISRDNAKNTVFLQMNSLKAEDTAVYYCAADALIYYKGSPDYYWGQGTQVTVSS”: “high polyreactivity”. In the case of “QVQLVESGGGLVQAGGSLRLSCAASGIIFNSYAMGWYRQAPGKERELVAAISRSGTSTYYADSVKGRFTISRDNAKNTVYLQMNSLKPEDTAVYYCNVARGYYSYSSRIDYYWGQGTQVTVSS”, the “polyreactivity (PSR sort gate)” value is recorded as “high polyreactivity”.

In the case of “QVQLVESGGGLVQAGGSLRLSCAASGIIFNTYVMGWYRQAPGKERELVAAISRRGGSTYYADSVKGRFTISRDNAKNTVYLQMNSLKPEDTAVYYCAADVLYQQAGSYYWGQGTQVTVSS”, the “polyreactivity (PSR sort gate)” value is reported as “high polyreactivity”.

Turning to “QVQLVESGGGLVQAGGSLRLSCAASGIIFNYYAMGWYRQAPGKERELVAAIRISDTTYYADSVKGRFTISRDNAKNTVYLQMNSLKPEDTAVYYCNTLYYYYYGEVYVRDYDYWGQGTQVTVSS”, the “polyreactivity (PSR sort gate)” value is listed as “low polyreactivity”. Consider “QVQLVESGGGLVQAGGSLRLSCAASGIIFNYYTMGWYRQAPGKERELVAVISWRGGSTFYADSVKGRFTISRDNAKNTVYLQMNSLKPEDTAVYYCAAVLFGDYPPVYYPTEYDYWGQGTQVTVSS”, for which the “polyreactivity (PSR sort gate)” value is “low polyreactivity”. Next, “QVQLVESGGGLVQAGGSLRLSCAASGIIFPHYAMGWYRQEPGKERELVAAITRSGGSTYYADSVKGRFTISRDNAKNTVYLQMNSLKPEDTAVYYCAAKRPVQSGGYNYWGQGTQVTVSS”: “high polyreactivity”; “QVQLVESGGGLVQAGGSLRLSCAASGIIFPLYMGWDRQAPGTERVLVAAINSIGGRTYYADSVKGRFTISRDNAKNTVYLQMNSLKPEDTAVYYCNAVPVGWRYRQYDYWGQGTQVTVSS”: “high polyreactivity”. For the sequence “QVQLVESGGGLVQAGGSLRLSCAASGIIFPRYAMGWYRQAPGKERELVAAITIGGRTNYSDSVKGRFTISRDNAKNTVYLQMNSLKPEDTAVYYCAAQTYVPYYEYDYWGQGTQVTVSS”, the “polyreactivity (PSR sort gate)” value is “low polyreactivity”.

Consider “QVQLVESGGGLVQAGGSLRLSCAASGIIFPRYMGWYRQEPGKERELVAAIRWSSDDTNYADSVKGRFTISRDNAKNTVYLQMNSLKPEDSAVYYCAKDSLYGVPFDVDYWGQGTQVTVSS”, for which the “polyreactivity (PSR sort gate)” value was “low polyreactivity”. The same measure for “QVQLVESGGGLVQAGGSLRLSCAASGIIFPTYAMGWYRQAPGKERELVAAITSGGSTYYADSVKGRFTISRDNAKNTVYLQMNSLKPEDTAVYYCAAAYLGYGAVQPSYEGGYWGQGTQVTVSS”: “low polyreactivity”. With “QVQLVESGGGLVQAGGSLRLSCAASGIIFPTYDMGWYRQAPGKERELVAAITWSTGSTTYADSVKGRFTISRDNAKNTVYLQMNSQKPEDTAVYYCNKDSEGSGGEFDYWGQGTQVTVSS”, the “polyreactivity (PSR sort gate)” value is reported as “low polyreactivity”. Next, “QVQLVESGGGLVQAGGSLRLSCAASGIIFPVYAMGWYRQAPGKERELVATIDSGGGTYYADSVKGRFTISRDNAKNTVYLQMNSLKPEDTAVYYCAADLWVGLVSLWDGYVEYDYWGQGTQVTVSS”: “low polyreactivity”; “QVQLVESGGGLVQAGGSLRLSCAASGIIFPYYAMGWYRPAPGKERELVAASTGRGTSTYADSVKGRFTISRDNAKNTVYLQMNSRKPEDTAVYYCAAVGWFADFLFSDINGYYWGQGTQVTVSS”: “low polyreactivity”.

The values are drawn from the nanobody polyreactivity screen of Harvey et al. (2022).
